The record followed here is paper PMC9521807.

The target of the assay is OsRMC-His (rice (Oryza sativa)). Briefly: BLI.

Consider “MoCel6A (analyte of the binding kinetics) (enzyme)”, for which the dissociation constant (Kd) (commonly a measure of binding affinity in units of concentration) amounted to 21.9 nM; the koff (as a rule, a measure of how fast the partners let go of each other) is 0.000845 s⁻¹; the association rate constant (kon) (commonly the rate constant with which the complex forms) was found to be 38900 M⁻¹ s⁻¹.
